Experiment: label from the status in PepcDB records
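Also: failed if final PepcDB status was selected cloned or expressed and not failed if soluble or beyond.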

| Sequence | protein production |
| --- | --- |
| MRTLLFLHLLGAAIWVGGHLVLALGILPGALRRRDPQAIRAFEQVYERIGIPALLLQVVSGLWLASLWLPFDHWFGATPVARALQLKLLLLAATAALGVHARLRLIPNLDAESLPKLGWHIAAITLVGLGFVAVGQSFRFGGAF | failed |
| MADTGEVQFMKPFISEKSSKSLEIPLGFNEYFPAPFPITVDLLDYSGRSWTVRMKKRGEKVFLTVGWENFVKDNNLEDGKYLQFIYDRDRTFYVIIYGHNMC | not failed |
| MSLAQGRQVIGLDIGTTSTIAILVRLPDTVVAVASRPTTLSSPHPGWAEEDPAQWWDNARAVLAELKTTAGESDWRPGGICVTGMLPAVVLLDDRGAVLRPSIQQSDGRCGDEVAELRAEVDSEAFLARTGNGVTQQLVTAKLRWIERHEPAVFGAIATVCGSYDYINMLLTGERVVDRNWALEGGFIDLASGTVEADLVALAHIPPSAVPPAHPTHRVLGAVTAEAAALTGLPTGLPVYGGAADHIASALAAGITRPGDVLLKFGGAGDIIVASATAKSDPRLYLDYHLVPGLYAPNGCMAATGSALNWLAKLLAPEAGEAAHAQLDALAAEVPAGADGLVCLPYFLGEKTPIHDPFASGTFTGLSLSHTRGHLWRALLEAVALAFRHHVAVLDDIGHAPQRFFASDGGTRSRVWMGIMADVLQRPVQLLANPLGSAVGAAWVAAIGGGDDLGWDDVTALVRTGEKITPDPAKAEVYDRLYRDFSALYATLHPFFHRSREGHHHHHH | not failed |
| MRSGKIASEEYKDNPLTSCGTVRYWAAAKAAAGRHEETFTASTLSDLLEQVRQKYEGNAAMLAVLARSSFLVNATPVGVRPHHEVVLEPGWIVEVLPPFAGG | failed |
| MMSDSPQKLGRNEWNAYMDKVKAKDREAFAFVFRFYAPKLKQFAYKHVGNEQVAMEMVQETMATVWQKAHLYDGKKSALSTWIYTIIRNLCFDLLRKQKGKELHIHSDDIWPSEYYPPDMVDHYSPEQDMLKEQVVKFLDILPKNQRDVLQAVYLEELPHQQVAELFDIPLGTVKSRLRLAVEKLRHSMHTEQL | failed |
| MSYVPPHKRLENVALRASSVPPSLLKKHNKNVGSTNTKIIYANGYISRWFLVGSDPEDSNFQLVPGSSEWRKDAEEKSLVILAKSDLGKLENPWLWVTEKVEDDIIMGFDRAKKTLLGYGGSEDVKLRLIARFGTLRDGPLTKSTLEKLKKMFRTNVPKSYVENVGYRAVHKMGFCVEETKELYHVKVSDNTRPDVTISCKCMAELNALRHLNLDVSCLDQDLDMRLMVDSKRTLTNLSENEITNLKELTDSAVVDPTVKGGLKWPLGKSSCADRYIVCGVWHTVTTTYINQTMRLQIREADRYDFRTGVGGTSSEVNFKLKALSTILLKEEDVERKCVSDMLKDCLKAVWEYFLKEV | failed |
| MTSQGRAAMVRRMHDPQQPIRWRDLDLDPTHWVREILRVLGLALSRLWGRDVMLYVGGVSFFALLAVFPGLAILIGLYSLFLTPETAAWQAVKLAELIPSGARSIVQDELSRLAHAPGQTISLQSGVVLIVGAYAAHRGFKALLAGLSFIHDEENQRGFLGFNLMALLVLMAAFGLLFIMSGIFLTLRLLGTALELRPLAGVSWIQSEWTWASFGIVVGMSLVYRYAMSRQIVGWRASIAGGVAAAALCVFMSWASAFYVEKVVHLGATYGSVSAVIIFLIWLSWSVNAIFFGGALATEVEIALDERPRALLEGPRPIALKAPSESES | failed |
| MNHPIVGLIAAVVLAIGVVELHLWLPAIQSVSPLLISIGVGILVSHILPARCKEPLAPGLNIAKGSILRVAIVLYGFNITLQALSQVGIYGLFSAVTMVSVILFVGIWAGTKLFKLDKEQAILVAVGSAICGAAAVAAMEPIIKAKPHKVITAISTVVVFGTLSMLLMPLVFQFFDINEAQYGLWVGVSVHEVAQVVVAGDSVSSNAAHMAVLEKMLRVVLLVPVLLTFAVWMRQKSKGSDKESGDNKVSVPWFAFLFIGAIIINSLNWIPDDVTTAFTAAATYLLCIAMTALGMLTHISVIKQGGAKAFALAALLFVSLFITGYLLAQFA | failed |
| MRGVRLLAVIGLVLGGLVLSGRPAQAQYAQDSLAFDLEHVFDLEYAADPQISPSGDRVVYARTVMDKMDDRRASRLWAVNADGSGHRPITAPETNASQPRWSPSGDRVAYVASTEGDGAEVFVRWMDTGQTARITQLEESPSGLSWGPEGDRLAFSMFVPAEPEPFARMPSPPEGADWAERPDVIDQTYYRSDGGGYTERGHTQLFVVSASGGTPRQITTGPYDHGGAPTWTPDGETLLISANRHADRRLDPLNTEVYAVDVASGAVTALTTRQGPDGDVALSPDGSTIAYTGFDDREQGYQVTKLYVMDRDGTNARLLTEGFDRDVQNPTFTADGEHIVFRYVDEGSTKIGRVALDGGRRVVAEHVGGTSIGRPYTSGSFSLASNGRVAFTHATPQRPADVAVAQAGREAQVLTALNDDLFGQVDLGSVEQITYESSHDGRTIEGWIVTPPGFDASQEYPLVLEIHGGPFASYGPYFSAEVQLYAAAGYVVLYTNPRGSTSYGQDFGNAIHHDYPGHDYDDLMSGVDAVLERGYVDADRLYVTGGSGGGVLTSWIVGHTDRFRAAVAAKPVINWYSWALTADMYPYGVKYWFPGLPWNHEEHYMDRSPLSYVDNVTTPTMLLTGANDYRTPMSESEQFYQALKLREVETALVRVPGASHSIAARPSHLAAKAAHVLEWFRRHGGPTPEQ | failed |
| MGHHHHHHSHMKALLSIEMDMQVPFHDVDSMGITWHGNYLRYFEVARCKLLDELGYNYRQMRASNYAWPIIDVQIKYVKPSTFEQHITVRAELVEWENRLKINYQIRDTATGERITKGYTIQAAVDMTSQEMCFVTPEVFRSKIAPLLAKVDNE | not failed |
| MGMHGAAHIVWDWNGTLFHDNAAIIGATNAAFAELGLEPITLERYRALYCVPVPKFYERLIGRLPTDAEWEIMDEIFHRYYAEHRVGCGLTEGAAELLVEWQSAGHSQSILSMYVHDELVPLVRGFGIEPHFIRVDGRTGPSGGSKAEHMVRHIGALAGVAGVDPARTVVIGDAADDAVAALHVGAQAVLYTGGSHSRASLEGVGVPVVDTLAEAVEEAGRLAA | failed |
| VKPKGAFKAFTGEGQKLGSTAPQVLSTSSPAQQAENEAKASSSILIDESEPTTNIQIRLADGGRLVQKFNHSHRISDIRLFIVDARPAMAATSFILMTTFPNKELADESQTLKEANLLNAVIVQRLT | failed |
| MKPSGEDQAALAAGPWEECFQAAVQLALRAGQIIRKALTEEKRVSTKTSAADLVTETDHLVEDLIISELRERFPSHRFIAEEAAASGAKCVLTHSPTWIIDPIDGTCNFVHRFPTVAVSIGFAVRQELEFGVIYHCTEERLYTGRRGRGAFCNGQRLRVSGETDLSKALVLTEIGPKRDPATLKLFLSNMERLLHAKAHGVRVIGSSTLALCHLASGAADAYYQFGLHCWDLAAATVIIREAGGIVIDTSGGPLDLMACRVVAASTREMAMLIAQALQTINYGRDDEK | not failed |
| SPEHGQAGRKIGEEGIVLLQNKDNVLPIDLKKARKIAVIGENAIKMMTVGGGSSSLKVKYEISPLDGLKNRVGSQAEVLYVRGYVGDPTGEYNGVQTGQDLKDDRSEDELLAEAVEVSKDADYVIFFGGLNKSNHQDCEDSDRASLGLPYAQDRVIGELAKVNKNLIVVNISGNAVAMPWVNEVPAIVQGWFLGSEAGTALASVLLGDANPSGKLPFTFPARLEDVGAHKLGEYPGNKEELAHSKNNGDTINEIYREDIFVGYRWADKEKIKPLFPFGHGLSYTTF | failed |
| MAKSQIEPGVPITLQELYPSSLFYKEGVSLRVTAMLRGYSVETAIGVIEDGGRSLKINTQNIRDVSFRVGSIYQFIGELHIEQPNNEARTGRNVDGIDMNLYRKTIELLRQFLKEEDNSNMVE | failed |
| MMDYALLSLMLLFTLLLAFILTRLKVSPVIAYLLGGLISFNYFHFDFNSSYFEILNFLALNLLAFEIGTSFDISRAKELFRRAMGIALTELILIVLISYFIGLYLLHLDLFASLFLVMASIDTSTSILYKIIGNKVDKNDRDLLVAVASVEDIEVFFLYSIAIALNGSFNVFRISFVILEVFIASLIIYAFAKYFLTGLSIFKFTSFEDESILILVPIVLVFVFEYISQVTQVPATLTMILAGIAFSSISGSEKVLRYTGPIREFSLIFFFLSVGSYLKITAGISTFVLISFIILAIKYFSFSTASWVSGTTLVKAFTNGLYMLPLSEFGIIVSLQALQQGIDIAIVYYISVVVVLVSSIIASILAVRVNVLQRVIGIVYSRSYFLRQLDSTIIWLNKTLSTNLSPILRSVLFRGFVKMFLYLILPYVLFPIINSIVKSIIDPINNLILQYLLYSGEIVIALFLLYLFLLEGSRLYSIINNEILVRIVRVRSRLFKEFWFGLTSFSSTFYTIILTIIYIIFEIIPLLYNFPIRLVFVPLLISLYFIYRYRAPPITYTRIDNKEADKIVKLSVKVIKKMRKRRSKRSIISTTKTVRREWS | failed |
| MEYQLSQAGNKGKVLILKVTGIFFVALAILGVVLPILPTTPFLLVAAACFAKSSPTMQRKLLANKTFGPLIHDWQKYRSIPRKAKRIALLTMILSVCWSAFMLQSVMLTALVVALVIGPFIFLLRLPESK | failed |
| MTKSPARLISFISIAIAINLVGANLALFLRLPIYLDTIGTLLIAVILGPWYAASTAFLSALINWMTTDIFSLYYSPVAIVVAIITGILIKRNCKPSSLLWKSLIISLPGTIIASVITVILFKGITSSGSSIIAQFLHGIGLDMTSSLILVQVGTDYMDRLISLILVFSTITLLKKHSPNLINQRF | failed |
| MGHHHHHHSHMRTISFFNNKGGVGKTTLSTNVAHYFALQGKRVLYVDCDPQCNATQLMLTEEQTESIYLDGLNDEVAERNSLAKTVYAIFVPLREGESQIAAEITPMRSERFGVDVLPGHPALSQIEDLMSDSWQSALGRQTGPFRRIHWAGQLAHAMERDDRYDVIFFDVGPSLGPFNRTVLLGCDAFVTPTATDLFSFHAFGNLARWFDAWVTQYAEIHEGNMAEWKKYS | failed |
| MRRTVRYILATSNPMGDLEALEKFVKLAPDTGADAIALIGNLMPKAAKSRDYAAFFRILSEAHLPTAYVPGPQDAPIWEYLREAANVELVHPEMRNVHETFTFWRGPYLVAGVGGEIADEGEPEEHEALRYPAWVAEYRLKALWELKDYPKIFLFHTMPYHKGLNEQGSHEVAHLIKTHNPLLVLVAGKGQKHEMLGASWVVVPGDLSEGEYSLLDLRARKLETGNVR | not failed |
| MNNKITKTSIFLTISLLLITPGFSVVAVGLLTLYSSVKLIKNGLNLNKFDIIPLITLSAYFLSNLPITIIDGDTLRYLDAGIRALLCIPMYFFIKNEISKGANLDNTLCTSTILASFGALAFAFYQFFILNMPRVDGFLFSINFGYLAAALAILSFGLSFTQTRFKYYLYLSVVAATVATILTLTRGAILTLLFVFILFFIVNVRKIKFKQTLVFTLISFLLVSVSYQFSPRIQERVDFTIFEISSIASNNIHAAASSGGRLQLWYAAVEAFKHNPIWGTTYSERESLNIELFKEGKVDEWTSTVPRGHAHSQYFEAIASNGTLGILAIFAMLILPFGVFLNDYRKTGSPISQTGYLFAFGFIIFCLTEAPLQANLIGTFYGFMVAIFYAYIAAKRAKN | failed |
| MGANLNSAYAAGVKIAIVMGSKSDWATMQFAADVLTTLNVPFHVEVVSAHRTPDRLFSFAEQAEANGLHVIIAGAGGAAHLPGMLAAKTLVPVLGVPVQSAALSGVDSLYSIVQMPRGIPVGTLAIGKAGAANAALLAAQILALHDTELAGRLAHWRQSQTDDVLDNPDPREEA | not failed |
| MNPFQNSFGGHIPQDVAGKQGENVIFIVYNLTDSPDTVDKVKDVCANFSAMIRSMRNRFPDMQFSCTMGFGADAWTRLFPDKGKPKELSTFSEIKGEKYTAVSTPGDLLFHIRAKQMGLCFEFASILDEKLKGAVVSVDETHGFRYMDGKAIIGFVDGTENPAVDENPYHFAVIGEEDADFAGGSYVFVQKYIHDMVAWNALPVEQQEKVIGRHKFNDVELSDEEKPGNAHNAVTNIGDDLKIVRANMPFANTSKGEYGTYFIGYASTFSTTRRMLENMFIGSPAGNTDRLLDFSTAITGTLFFVPSYDLLGELGE | not failed |
